Holding throughout (assay): cell-based or functional assay
The target in test [1] is H6tHA1V(2-94)-sfGFP-S (Bos taurus (Bovine)) (UniProt P63026).
Test [2] has as its target H6tHAtev1V(60-94)L (Photinus pyralis).
Test [3] addresses H6tHA1S(146-206)-NL-S (Macaca mulatta (Rhesus macaque)) (UniProt P60877).
Test [4] has as its target H6tHA1S(146-206)-sfGFP-S (Macaca mulatta (Rhesus macaque)) (UniProt P60877).
Test [5] addresses H6tHAtev1S(140-197)L (Photinus pyralis) (UniProt P60877).
In test [6] the target is H6tHAtev1S(146-206)LS D179KA199R (Photinus pyralis) (UniProt P60877).
The target in test [7] is H6tHAtev1S(146-206)LS D179KN196QQ197NR198K (Photinus pyralis) (UniProt P60877).
Test [8] addresses H6tHA1V(2-94)-sfGFP-S (Bos taurus (Bovine)) (UniProt P63026). This is another data set of the same source.

Like-named read-outs stand apart in the source and are kept apart here.

UniProt P63026, sequence (P63026 2-94): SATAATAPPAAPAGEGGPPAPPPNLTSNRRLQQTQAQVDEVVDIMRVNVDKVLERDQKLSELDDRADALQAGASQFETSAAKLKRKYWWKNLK

In test [1], “BoNT/B1 (recombinant, activated full-length) (from UniProt B1INP5 2-1291) (enzyme)” came in with an EC50 of cleavage of generic substrate with reporter sfGFP, JDZ-buffer, 1 h 37°C of 0.02 nM. In addition, in test [2], the EC50 of substrate cleavage, endopeptidase assay, JDZ-buffer, 1 h 37°C came out at 0.6 nM and the fold increase of EC50 relative to generic H6tHAtev1V(2-94)LS came out at 10 fold.

Regarding “BoNT/E1 (recombinant, activated full-length) (from UniProt Q00496 2-1251) (enzyme)”, the EC50 of cleavage of generic substrate with reporter NL, JDZ-buffer, 1 h 37°C in test [3] came to 0.2 nM. In test [4], the EC50 of cleavage of generic substrate with reporter sfGFP, JDZ-buffer, 1 h 37°C was 0.1 nM. Besides, the EC50 of substrate cleavage, endopeptidase assay, JDZ-buffer, 1 h 37°C in test [5] turned out to be 0.2 nM; in test [6] it was 1000 nM; in test [7] it was 1000 nM.

In test [3], “BoNT/C (recombinant, activated full-length) (from UniProt P18640 2-1291) (enzyme)” registered an EC50 of cleavage of generic substrate with reporter NL, JDZ-buffer, 1 h 37°C of 10 nM. In test [4], this molecule displayed an EC50 of cleavage of generic substrate with reporter sfGFP, JDZ-buffer, 1 h 37°C of 20 nM. Moreover, the EC50 of substrate cleavage, endopeptidase assay, JDZ-buffer, 1 h 37°C in test [6] stood at 200 nM. Further, in test [7], the EC50 of substrate cleavage, endopeptidase assay, JDZ-buffer, 1 h 37°C is 0.6 nM and the fold decrease of EC50 relative to generic H6tHAtev1S(146-206)LS was found to be 16 fold.

“BoNT/D (recombinant, activated full-length) (from UniProt P19321 2-1276) (enzyme)”: the EC50 of cleavage of generic substrate with reporter sfGFP, JDZ-buffer, 1 h 37°C in test [1] stood at 1 nM.

As to “BoNT/A1 (recombinant, activated full-length) (from UniProt P0DPI1 2-1296) (enzyme)”, the EC50 of cleavage of generic substrate with reporter NL, JDZ-buffer, 1 h 37°C in test [3] came to 0.01 nM. The molecule further registered an EC50 of cleavage of generic substrate with reporter sfGFP, JDZ-buffer, 1 h 37°C in test [4] of 0.03 nM. In test [6], this molecule displayed an EC50 of substrate cleavage, endopeptidase assay, JDZ-buffer, 1 h 37°C of 0.4 nM.

B1: BoNT/F1 (recombinant, activated full-length) (enzyme)
chain: MPVVINSFNYNDPVNDDTILYMQIPYEEKSKKYYKAFEIMRNVWIIPERNTIGTDPSDFDPPASLENGSSAYYDPNYLTTDAEKDRYLKTTIKLFKRINSNPAGEVLLQEISYAKPYLGNEHTPINEFHPVTRTTSVNIKSSTNVKSSIILNLLVLGAGPDIFENSSYPVRKLMDSGGVYDPSNDGFGSINIVTFSPEYEYTFNDISGGYNSSTESFIADPAISLAHELIHALHGLYGARGVTYKETIKVKQAPLMIAEKPIRLEEFLTFGGQDLNIITSAMKEKIYNNLLANYEKIATRLSRVNSAPPEYDINEYKDYFQWKYGLDKNADGSYTVNENKFNEIYKKLYSFTEIDLANKFKVKCRNTYFIKYGFLKVPNLLDDDIYTVSEGFNIGNLAVNNRGQNIKLNPKIIDSIPDKGLVEKIVKFCKSVIPRKGTKAPPRLCIRVNNRELFFVASESSYNENDINTPKEIDDTTNLNNNYRNNLDEVILDYNSETIPQISNQTLNTLVQDDSYVPRYDSNGTSEIEEHNVVDLNVFFYLHAQKVPEGETNISLTSSIDTALSEESQVYTFFSSEFINTINKPVHAALFISWINQVIRDFTTEATQKSTFDKIADISLVVPYVGLALNIGNEVQKENFKEAFELLGAGILLEFVPELLIPTILVFTIKSFIGSSENKNKIIKAINNSLMERETKWKEIYSWIVSNWLTRINTQFNKRKEQMYQALQNQVDAIKTVIEYKYNNYTSDERNRLESEYNINNIREELNKKVSLAMENIERFITESSIFYLMKLINEAKVSKLREYDEGVKEYLLDYISEHRSILGNSVQELNDLVTSTLNNSIPFELSSYTNDKILILYFNKLYKKIKDNSILDMRYENNKFIDISGYGSNISINGDVYIYSTNRNQFGIYSSKPSEVNIAQNNDIIYNGRYQNFSISFWVRIPKYFNKVNLNNEYTIIDCIRNNNSGWKISLNYNKIIWTLQDTAGNNQKLVFNYTQMISISDYINKWIFVTITNNRLGNSRIYINGNLIDEKSISNLGDIHVSDNILFKIVGCNDTRYVGIRYFKVFDTELGKTEIETLYSDEPDPSILKDFWGNYLLYNKRYYLLNLLRTDKSITQNSNFLNINQQRGVYQKPNIFSNTRLYTGVEVIIRKNGSTDISNTDNFVRKNDLAYINVVDRDVEYRLYADISIAKPEKIIKLIRTSNSNNSLGQIIVMDSIGNNCTMNFQNNNGGNIGLLGFHSNNLVASSWYYNNIRKNTSSNGCFWSFISKEHGWQEN
In test [8], B1 returned an EC50 of cleavage of generic substrate with reporter sfGFP, JDZ-buffer, 1 h 37°C of 0.06 nM.

For the origin of these results see patent EP3529371B1.
